Source: US20120244144A1 (University of Texas, published 2012)

Experiments:
[1] = biological target: pertussis toxin holotoxin (Bordetella pertussis), P04977; assay: competition ELISA (Friguet), 5 nM antibody, soluble PT; conditions: remark: other sources report otherwise
[2] = biological target: T1, PTx-S1-220, truncated recombinant S1 subunit (residues 1-220) (Bordetella pertussis strain Tohama I), P04977; assay: SPR, mAb 1B7 immobilised ~1000 RU; conditions: remark: other sources report otherwise
[3] = biological target: pertussis toxin holotoxin (Bordetella pertussis), P04977; assay: SPR BIAcore 3000, mAb 1B7 immobilised ~1000 RU; conditions: remark: other sources report otherwise
[4] = biological target: T1, PTx-S1-220, truncated recombinant S1 …; assay: SPR BIAcore 3000, mAb 1B7 immobilised ~1000 RU; conditions: remark: other sources report otherwise
[5] = biological target: pertussis toxin B-oligomer (Bordetella pertussis), P04978; assay: SPR BIAcore 3000, mAb 1B7 immobilised ~1000 RU; conditions: remark: other sources report otherwise
PTx-S1-220 R146A = biological target: T2, PTx-S1-220 R146A (Bordetella pertussis strain Tohama I, UniProt P04977 36-255, R146A); assay: SPR, mAb 1B7 immobilised ~1000 RU
T2 sequence: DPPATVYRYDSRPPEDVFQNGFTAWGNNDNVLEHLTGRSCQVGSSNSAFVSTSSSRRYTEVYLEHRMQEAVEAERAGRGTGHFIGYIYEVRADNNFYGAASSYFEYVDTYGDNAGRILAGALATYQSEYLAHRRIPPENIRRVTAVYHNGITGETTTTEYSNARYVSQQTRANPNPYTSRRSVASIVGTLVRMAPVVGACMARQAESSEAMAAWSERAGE

PTx-S1-220 E210A = biological target: T3, PTx-S1-220 E210A (Bordetella pertussis strain Tohama I, UniProt P04977 36-255, E210A); assay: SPR, mAb 1B7 immobilised ~1000 RU
T3 sequence: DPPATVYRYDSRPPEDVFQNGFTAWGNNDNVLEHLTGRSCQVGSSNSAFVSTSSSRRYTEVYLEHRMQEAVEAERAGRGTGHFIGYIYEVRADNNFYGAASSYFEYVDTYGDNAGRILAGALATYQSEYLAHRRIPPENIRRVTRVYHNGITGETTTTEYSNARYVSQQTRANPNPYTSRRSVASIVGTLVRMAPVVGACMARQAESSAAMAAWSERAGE

PTx-S1-220 T81A = biological target: T4, PTx-S1-220 T81A (Bordetella pertussis strain Tohama I, UniProt P04977 36-255, T81A); assay: SPR, mAb 1B7 immobilised ~1000 RU
T4 sequence: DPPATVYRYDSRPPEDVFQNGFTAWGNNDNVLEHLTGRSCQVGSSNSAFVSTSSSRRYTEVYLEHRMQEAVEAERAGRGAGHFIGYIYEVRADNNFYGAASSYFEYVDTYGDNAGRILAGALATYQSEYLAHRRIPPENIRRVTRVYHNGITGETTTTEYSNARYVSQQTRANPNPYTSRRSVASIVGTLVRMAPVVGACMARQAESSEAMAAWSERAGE

PTx-S1-220 H83A = biological target: T5, PTx-S1-220 H83A (Bordetella pertussis strain Tohama I, UniProt P04977 36-255, H83A); assay: SPR, mAb 1B7 immobilised ~1000 RU
T5 sequence: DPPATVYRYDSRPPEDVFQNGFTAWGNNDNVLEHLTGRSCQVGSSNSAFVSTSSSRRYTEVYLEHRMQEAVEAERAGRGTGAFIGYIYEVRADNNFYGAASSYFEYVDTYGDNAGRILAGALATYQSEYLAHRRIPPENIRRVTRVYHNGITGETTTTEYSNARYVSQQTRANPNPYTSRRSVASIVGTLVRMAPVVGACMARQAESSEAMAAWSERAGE

PTx-S1-220 Y166A = biological target: T6, PTx-S1-220 Y166A (Bordetella pertussis strain Tohama I, UniProt P04977 36-255, Y166A); assay: SPR, mAb 1B7 immobilised ~1000 RU
T6 sequence: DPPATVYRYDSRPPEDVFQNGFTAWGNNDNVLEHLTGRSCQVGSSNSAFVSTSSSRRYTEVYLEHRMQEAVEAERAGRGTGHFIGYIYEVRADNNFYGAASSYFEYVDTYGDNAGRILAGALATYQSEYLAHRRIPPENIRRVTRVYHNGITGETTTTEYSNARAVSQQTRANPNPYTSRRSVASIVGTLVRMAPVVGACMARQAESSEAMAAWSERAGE

PTx-S1-220 N150A = biological target: T7, PTx-S1-220 N150A (Bordetella pertussis strain Tohama I, UniProt P04977 36-255, N150A); assay: SPR, mAb 1B7 immobilised ~1000 RU
T7 sequence: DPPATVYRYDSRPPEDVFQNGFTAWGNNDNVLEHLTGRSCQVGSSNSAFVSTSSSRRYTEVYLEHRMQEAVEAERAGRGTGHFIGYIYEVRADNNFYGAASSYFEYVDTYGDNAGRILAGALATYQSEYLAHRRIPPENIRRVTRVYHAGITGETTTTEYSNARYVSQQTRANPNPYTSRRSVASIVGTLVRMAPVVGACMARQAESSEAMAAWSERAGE

PTx-S1-220 T153A = biological target: T8, PTx-S1-220 T153A (Bordetella pertussis strain Tohama I, UniProt P04977 36-255, T153A); assay: SPR, mAb 1B7 immobilised ~1000 RU
T8 sequence: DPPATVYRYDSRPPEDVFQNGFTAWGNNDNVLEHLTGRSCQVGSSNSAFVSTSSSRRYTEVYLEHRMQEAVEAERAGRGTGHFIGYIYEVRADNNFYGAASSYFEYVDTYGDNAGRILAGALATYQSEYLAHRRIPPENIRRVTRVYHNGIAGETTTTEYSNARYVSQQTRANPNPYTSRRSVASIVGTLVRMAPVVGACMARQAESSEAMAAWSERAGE

PTx-S1-220 Y8A = biological target: T9, PTx-S1-220 Y8A (Bordetella pertussis strain Tohama I, UniProt P04977 36-255, Y8A); assay: Western blot (text: 1B7 was unable to bind Y8A)
T9 sequence: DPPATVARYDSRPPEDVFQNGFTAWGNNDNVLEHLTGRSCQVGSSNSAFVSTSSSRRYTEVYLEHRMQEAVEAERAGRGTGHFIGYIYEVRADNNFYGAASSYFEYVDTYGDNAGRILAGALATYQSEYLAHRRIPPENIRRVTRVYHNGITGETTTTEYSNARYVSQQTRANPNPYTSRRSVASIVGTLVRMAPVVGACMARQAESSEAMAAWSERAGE

B1: monoclonal antibody 1B7 (antibody)
chain: DIQMTQSPALMSASPGEKVTMTCSASSSVSFMYWYQQKPRSSPKPWIYLTSNLPSGVPARFSGSGSGTSYSLTISSMEAEDAATYYCQQWSSHPPTFGSGTKLEIKRGGGGSGGGGSGGGGSGGGGSEVQLQQSGSELVRPGASVKLSCKASGYKFTSYWMHWVKQRPGQGLEWIGNIFPGSGSTNYDEKFNSKATLTVDTSSNTAYMQLSSLTSEDSAVYYCTRWLSGAYFDYWGQGTTLTVSSASGA
notes: also called mAb 1B7; 1B7 mAb
B1 showed a Kd [1] of 1.1 nM, a koff [2] of 0.0014 s⁻¹ and a koff [3] of 0.0004 s⁻¹. The koff [4] was 0.0014 s⁻¹, the koff [5] was 0.0027 s⁻¹ and the koff (PTx-S1-220 R146A) was 0.0015 s⁻¹. The koff (PTx-S1-220 E210A) was 0.0016 s⁻¹, the koff (PTx-S1-220 T81A) was 0.0017 s⁻¹ and the koff (PTx-S1-220 H83A) was 0.01 s⁻¹. The koff (PTx-S1-220 Y166A) was 0.0014 s⁻¹, the koff (PTx-S1-220 N150A) was 0.008 s⁻¹ and the koff (PTx-S1-220 T153A) was 0.002 s⁻¹. B1: no binding (PTx-S1-220 Y8A).
